Data taken from US20240100176A1 (Eli Lilly, published 2024).

Legend:
Assay in all cases: capture ELISA: Ab1 on anti-human IgG Fc, His-tagged receptor at 0.04 µg/mL, anti-His HRP
[1] = target: T1, hexahistidine tagged human IL-4Rα ECD K2D (human, UniProt P24394 26-232)
T1 construct: not shown: hexahistidine tag
Source text: (§1) Example 2d. […] Briefly, thirty surface amino acid residue substitutions were introduced individually into hexahistidine tagged human IL-4Rα extra cellular domain (ECD) as follows: K2D, E6R, K22D, P26R, T31R, F41A, L42G, L43G, E45R, E52R, G56R, D66R, A71R, Q82G, K87D, E94R, H107A, D108R, P124R, D125R, D143R, R148D, L155R, R160D, S164R, S168R, Q181R, P192R, K195D, or H197G. Each mutant protein having a single amino acid residue substitution as described above was transiently expressed in CHO cells and purified using standard immobilized metal affinity chromatography techniques. […] The plates were then washed 3 times with PBST and the exemplified human IL-4Rα antibody was added to the wells at a final concentration of 1 μg/mL in PBS-casein and incubated for 1 hour at room temperature. The plates were washed 3 times with PBST, the IL-4Rα mutant proteins were serially diluted 5-fold from 1 μg/mL for 3 points. in PBS-casein and added to the plate at 50 μL/well and incubated for 1 hour at room temperature. The plates were washed 3 times with PBST and a 1000-fold dilution of anti-histidine tag antibody HRP conjugate (R&D Systems, Cat. #MAB050H) in PBS-casein was added and incubated for 45 minutes at room temperature. The plates were washed 3 times, TMB substrate (Pierce, Cat. #34028) was added per manufacturer instructions, the reaction was quenched with H₂SO₄, and absorbance was read at 450 nm on an ELISA plate reader.

[2] = target: T2, hexahistidine tagged human IL-4Rα ECD L42G (human, UniProt P24394 26-232)
T2 construct: not shown: hexahistidine tag
Source text: as §1

[3] = target: T3, hexahistidine tagged human IL-4Rα ECD D125R (human, UniProt P24394 26-232)
T3 construct: not shown: hexahistidine tag
T3 sequence (P24394 26-232 D150R): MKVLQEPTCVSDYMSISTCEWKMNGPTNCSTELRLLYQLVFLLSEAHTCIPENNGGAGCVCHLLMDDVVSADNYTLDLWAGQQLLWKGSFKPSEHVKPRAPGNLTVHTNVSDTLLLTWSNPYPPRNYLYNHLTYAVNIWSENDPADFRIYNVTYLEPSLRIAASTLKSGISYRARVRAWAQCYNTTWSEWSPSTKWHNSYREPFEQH
Source text: as §1

[4] = target: T4, hexahistidine tagged human IL-4Rα ECD P124R (human, UniProt P24394 26-232)
T4 construct: not shown: hexahistidine tag
Source text: as §1

[5] = target: T5, hexahistidine tagged human IL-4Rα ECD P192R (human, UniProt P24394 26-232)
T5 construct: not shown: hexahistidine tag
T5 sequence (P24394 26-232 P217R): as the sequence (P24394 26-232 D150R) above, with R125D, P192R counted along it
Source text: as §1

[6] = target: T6, hexahistidine tagged human IL-4Rα ECD Q82G (human, UniProt P24394 26-232)
T6 construct: not shown: hexahistidine tag
Source text: as §1

[7] = target: T7, hexahistidine tagged human IL-4Rα ECD E6R (human, UniProt P24394 26-232)
T7 construct: not shown: hexahistidine tag
T7 sequence (P24394 other isoform, or with tags, fused parts or gaps): as the sequence (P24394 26-232 D150R) above, with E6R, R125D counted along it
Source text: as §1

[8] = target: T8, hexahistidine tagged human IL-4Rα ECD L155R (human, UniProt P24394 26-232)
T8 construct: not shown: hexahistidine tag
T8 sequence (P24394 26-232 L180R): as the sequence (P24394 26-232 D150R) above, with R125D, L155R counted along it
Source text: as §1

[9] = target: T9, hexahistidine tagged human IL-4Rα ECD A71R (human, UniProt P24394 26-232)
T9 construct: not shown: hexahistidine tag
T9 sequence (P24394 26-232 A96R): as the sequence (P24394 26-232 D150R) above, with A71R, R125D counted along it
Source text: as §1

[10] = target: T10, hexahistidine tagged human IL-4Rα ECD H197G (human, UniProt P24394 26-232)
T10 construct: not shown: hexahistidine tag
T10 sequence (P24394 26-232 H222G): as the sequence (P24394 26-232 D150R) above, with R125D, H197G counted along it
Source text: as §1

[11] = target: T11, hexahistidine tagged human IL-4Rα ECD H107A (human, UniProt P24394 26-232)
T11 construct: not shown: hexahistidine tag
T11 sequence (P24394 26-232 H132A): as the sequence (P24394 26-232 D150R) above, with H107A, R125D counted along it
Source text: as §1

[12] = target: T12, hexahistidine tagged human IL-4Rα ECD E45R (human, UniProt P24394 26-232)
T12 construct: not shown: hexahistidine tag
T12 sequence (P24394 26-232 E70R): as the sequence (P24394 26-232 D150R) above, with E45R, R125D counted along it
Source text: as §1

[13] = target: T13, hexahistidine tagged human IL-4Rα ECD G56R (human, UniProt P24394 26-232)
T13 construct: not shown: hexahistidine tag
Source text: as §1

[14] = target: T14, hexahistidine tagged human IL-4Rα ECD K195D (human, UniProt P24394 26-232)
T14 construct: not shown: hexahistidine tag
T14 sequence (P24394 26-232 K220D): as the sequence (P24394 26-232 D150R) above, with R125D, K195D counted along it
Source text: as §1

[15] = target: T15, hexahistidine tagged human IL-4Rα ECD D143R (human, UniProt P24394 26-232)
T15 construct: not shown: hexahistidine tag
T15 sequence (P24394 26-232 D168R): as the sequence (P24394 26-232 D150R) above, with R125D, D143R counted along it
Source text: as §1

[16] = target: T16, hexahistidine tagged human IL-4Rα ECD E52R (human, UniProt P24394 26-232)
T16 construct: not shown: hexahistidine tag
Source text: as §1

[17] = target: T17, hexahistidine tagged human IL-4Rα ECD K22D (human, UniProt P24394 26-232)
T17 construct: not shown: hexahistidine tag
T17 sequence (P24394 26-232 K47D): as the sequence (P24394 26-232 D150R) above, with K22D, R125D counted along it
Source text: as §1

[18] = target: T18, hexahistidine tagged human IL-4Rα ECD Q181R (human, UniProt P24394 26-232)
T18 construct: not shown: hexahistidine tag
T18 sequence (P24394 26-232 Q206R): as the sequence (P24394 26-232 D150R) above, with R125D, Q181R counted along it
Source text: as §1

T1 sequence (P24394 other isoform, or with tags, fused parts or gaps): as the sequence (P24394 26-232 D150R) above, with K2D, R125D counted along it

B1: anti-human IL-4Rα antibody Ab1 (antibody, human IgG4 S228P, kappa)
heavy: QVQLVESGGGLVQPGGSLRLSCVASGFTFSHSSMNWVRQAPGKGLEWVSYISRATGAVYYADSVKGRFTISRDNAKNSLYLQMNSLRDEDTAVYYCAREPVFDYWGQGTLVTVSSASTKGPCVFPLAPCSRSTSESTAALGCLVKDYFPEPVTVSWNSGALTSGVHTFPAVLQSSGLYSLSSVVTVPSSSLGTKTYTCNVDHKPSNTKVDKRVESKYGPPCPPCPAPEFLGGPSVFLFPPKPKDTLMISRTPEVTCVVVDVSQEDPEVKFNWYVDGVEVHNAKTKPREEQFNSTYRVVSVLTVLHQDWLNGKEYKCKVSNKGLPSSIEKTISKAKGQPREPQVYTLPPSREEMTKNQVSLTCLVKGFYPSDICVEWESNGQPENNYKTTPPVLDSDGSFFLYSRLTVDKSRWQQGNVFSCSVMHEALHNHYTQKSLSLSLG
light: DIQMTQSPSAMSASVGDRVTITCRASQDISNYLAWFQQKPGKVPTRLIYAASSLQSGVPSRFSGSGSGTEFTLTISSLQPEDFATYYCLQWSSYPRTFGQGTKVEIKRTVAAPSVFIFPPSDEQLKSGTASVVCLLNNFYPREAKVQWKVDNALQSGNSQESVTEQDSKDSTYSLSSTLTLSKADYEKHKVYACEVTHQGLSSPVTKSFNRGEC
notes: human kappa light chain; also called anti-human IL-4Rα Ab1; unconjugated Ab1
ELISA (OD450) [1]: 1.09 OD450 | ELISA (OD450) [2]: 0.965 OD450 | ELISA (OD450) [3]: 1.01 OD450 | ELISA (OD450) [4]: 1.16 OD450 | ELISA (OD450) [5]: 1.22 OD450 | ELISA (OD450) [6]: 1.1 OD450 | ELISA (OD450) [7]: 0.915 OD450 | ELISA (OD450) [8]: 1.14 OD450 | ELISA (OD450) [9]: 0.907 OD450 | ELISA (OD450) [10]: 0.967 OD450 | ELISA (OD450) [11]: 1.42 OD450 | ELISA (OD450) [12]: 1.58 OD450 | ELISA (OD450) [13]: 1.17 OD450 | ELISA (OD450) [14]: 0.992 OD450 | ELISA (OD450) [15]: 1.27 OD450 | ELISA (OD450) [16]: 1.1 OD450 | ELISA (OD450) [17]: 0.593 OD450 | ELISA (OD450) [18]: 1.17 OD450
